Bridge positions count the residues as written; N and C are the ends. Square brackets hold non-standard residues; d marks the D form. Ends that are not written are not given here. S5 = C=CCCC[C@](C)(N)C(=O)O
Legend:
MCL-1ΔNΔC = target: T1, MCL-1ΔNΔC (Homo sapiens, UniProt Q07820); assay: In vitro covalent conjugation assay; assay type: binding; conditions: oxidizing conditions
T1 construct: MCL-1ΔNΔC (aa 170-327) and BCL-XLΔC (aa 1-212) constructs were cloned into pGEX-4T-1; GST (N, cleaved yes); made in house; host or cells: Escherichia coli BL21(DE3)
Procedure: (§1) After this incubation in a reducing environment, the mixture was diluted 5-fold into 50 mM Tris pH 8.0, 100 mM NaCl, 12 mM GSSG and incubated in the dark for an additional 30 min at RT. […] The gel was rinsed with water, subjected to FITC scan (Typhoon FLA 9500, GE Healthcare) and then Coomassie staining.
(§2) Processing for gel electrophoresis and Coomassie staining was performed as above.

BCL-XLΔC = target: T2, BCL-XLΔC (Homo sapiens, UniProt Q07817); assay: In vitro covalent conjugation assay; assay type: binding; conditions: oxidizing conditions
T2 construct: MCL-1ΔNΔC (aa 170-327) and BCL-XLΔC (aa 1-212) constructs were cloned into pGEX-4T-1; GST (N, cleaved yes); made in house; host or cells: Escherichia coli BL21(DE3)
Procedure: as §1, §2

Bfl-1 = target: T3, Bfl-1 (Homo sapiens, UniProt Q16548); assay: Liposomal release assay (Bfl-1 inhibition of BAX activation); assay type: biochemical
T3 sequence (Q16548 1-175): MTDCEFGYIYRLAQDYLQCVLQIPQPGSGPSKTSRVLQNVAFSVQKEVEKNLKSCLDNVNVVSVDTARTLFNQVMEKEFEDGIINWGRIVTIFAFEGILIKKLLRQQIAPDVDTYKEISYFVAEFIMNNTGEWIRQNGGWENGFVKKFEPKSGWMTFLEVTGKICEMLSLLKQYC
Procedure: The functional impact of the Bfl-1:NOXA disulfide bond formation was evaluated using competitive binding assays and liposomal release assays. […] Bfl-1 alone in the liposomal release assay inhibits activation of BAX and subsequent pore formation in the liposomes. […] (FIG. 5A and FIG. 5B).
Liposomal release assay: Large unilamellar vesicles (LUVs) with lipid composition resembling the mitochondrial outer membrane were generated, encapsulating the fluorescent dye ANTS (8-aminonaphthalene-1,3,6-trisulfonic acid, disodium salt) and the quencher DPX (p-xylene-bis-pyridinium bromide). For measurement of Bfl-1-induced inhibition of BAX, Bfl-1, BAX, tBid activator and liposomes were combined. To test effects of covalently bound Bfl-1:NOXA on BAX activation, Bfl-1 and NOXA SAHB were preincubated as described, then used at the designated concentrations. ANTS release and dequenching due to DPX dissociation (F) was measured over a period of 120 min with an M1000 Infinite plate reader (Tecan) with excitation and emission wavelengths of 355 nm and 520 nm, respectively. Plates were read following liposome lysis with 1% Triton X-100 to determine maximal release (F100). Percent ANTS/DPX release was calculated as [(F−F0)/(F100−F0)]×100.

T1 sequence (Q07820 170-327, stated change not applied): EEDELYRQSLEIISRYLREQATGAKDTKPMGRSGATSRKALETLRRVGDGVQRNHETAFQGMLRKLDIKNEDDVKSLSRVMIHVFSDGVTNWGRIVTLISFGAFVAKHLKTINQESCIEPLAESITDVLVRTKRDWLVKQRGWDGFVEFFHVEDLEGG
T2 sequence (Q07817 1-212, stated change not applied): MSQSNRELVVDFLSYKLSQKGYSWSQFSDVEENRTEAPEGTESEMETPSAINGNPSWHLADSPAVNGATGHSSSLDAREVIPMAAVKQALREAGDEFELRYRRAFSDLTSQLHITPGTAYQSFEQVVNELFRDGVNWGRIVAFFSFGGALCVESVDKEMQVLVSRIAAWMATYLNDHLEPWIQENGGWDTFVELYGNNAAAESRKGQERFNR

## NOXA SAHBA: stapled NOXA BH3 (aa 19-43) peptide, i, i+4 all-hydrocarbon staple substituting R31 and K35; SEQ ID NO:124 (AELEVECATQLR[S5]FGD[S5]LNFRQKLL; staple 13-17; not fully specified)
MCL-1ΔNΔC
  molecular weight shift or FITC labeling: no molecular weight shift or FITC labeling
BCL-XLΔC
  molecular weight shift or FITC labeling: no molecular weight shift or FITC labeling
Bfl-1; Bfl-1:NOXA disulfide bond formed prior to the assay
  inhibition of anti-apoptotic effects of Bfl-1 on BAX: almost completely erases the effects of Bfl-1
Bfl-1; NOXA added concurrently with Bfl-1
  inhibition of anti-apoptotic effects of Bfl-1 on BAX: somewhat inhibited

From patent publication US12570698B2, “Stabilized peptides for covalent binding to target protein” (Dana-Farber Cancer Institute, Inc., priority 2015, dated 2026)
